Assay results: patent US20230391883A1 (BEIGENE SWITZERLAND, published 2023)
Positions count from the first letter of the chain named. Values belong to the binder of their own block, whether it stands above or below them.

How the values were obtained:
[1] = target: T1, TIGIT-huIgG1 (human, UniProt Q495A1 22-141); assay: SPR (BIAcore T-200); human Fc-tagged TIGIT captured by anti-human IgG, antibody as analyte
T1 construct: also called Human Fc-tagged TIGIT; TIGIT-huIgG1 fusion protein
T1 sequence: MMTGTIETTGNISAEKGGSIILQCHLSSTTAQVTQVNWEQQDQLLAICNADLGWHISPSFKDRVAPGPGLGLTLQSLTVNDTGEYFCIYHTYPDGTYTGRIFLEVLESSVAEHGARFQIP
Protocol: (§1) Briefly, anti-human IgG antibody was immobilized on an activated CM5 biosensor chip (Cat. No.: BR100530, GE Life Sciences). Human Fc-tagged TIGIT was flowed over the chip surface and captured by anti-human IgG antibody. Then a serial dilution (0.12 nM to 10 nM) of purified murine antibodies were flowed over the chip surface and changes in surface plasmon resonance signals were analyzed to calculate the association rates (kₒₙ) and dissociation rates (koff) by using the one-to-one Langmuir binding model (BIA Evaluation Software, GE Life Sciences). The equilibrium dissociation constant (KD) was calculated as the ratio koff/kₒₙ.

[2] = target: T1, TIGIT-huIgG1; assay: SPR (BIAcore T-200); human Fc-tagged TIGIT captured by anti-human IgG, antibody as analyte; column head prints nM, koff/kon gives M
Protocol: as §1

[3] = target: T2, human TIGIT (form in the assay not stated) (human, UniProt Q495A1 22-141, limits assumed); assay: SPR; antibody captured on anti-human Fc surface, TIGIT analyte not named; Test 1
T2 construct: whole entry named
T2 sequence: T1 sequence
Text: (§2) For affinity determination, antibodies were captured by anti-human Fc surface, and used in the affinity-assay based on surface plasmon resonance (SPR) technology.

[4] = target: T3, full-length human TIGIT on cells (human, UniProt Q495A1 22-244); assay: flow cytometry on living NK92mi/TIGIT cells, goat anti-human IgG detection; Test 1
T3 construct: Used for engineered cells (NK92mi/TIGIT, NK92MI/TIGIT-DNAM-1, Jurkat/TIGIT) and for TIGIT on human blood cells; also called native TIGIT; huTIGIT
T3 sequence: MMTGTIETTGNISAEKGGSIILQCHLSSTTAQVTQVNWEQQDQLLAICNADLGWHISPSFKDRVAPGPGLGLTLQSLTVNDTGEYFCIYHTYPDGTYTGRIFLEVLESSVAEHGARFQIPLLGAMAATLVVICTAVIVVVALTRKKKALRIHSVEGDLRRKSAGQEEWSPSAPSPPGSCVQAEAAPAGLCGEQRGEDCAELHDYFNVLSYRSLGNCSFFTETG
Protocol: (§3) To evaluate the binding activity of anti-TIGIT antibodies to native TIGIT on living cells, NK92mi cells were engineered to over-express human TIGIT. Living NK92mi/TIGIT cells were seeded in 96-well plate and were incubated with a series of dilutions of anti-TIGIT antibodies. Goat anti-Human IgG was used as secondary antibody to detect antibody binding to the cell surface. EC₅₀ values for dose-dependent binding to human native TIGIT were determined by fitting the dose-response data to the four-parameter logistic model with GraphPad Prism. As show in FIG. 4A-B and Table 6.

[5] = target: T2, human TIGIT (form in the assay not …); assay: SPR; antibody captured on anti-human Fc surface, TIGIT analyte not named; Test 2
Text: as §2

[6] = target: T3, full-length human TIGIT on cells; assay: flow cytometry on living NK92mi/TIGIT cells, goat anti-human IgG detection; Test 2
Protocol: as §3

[7] = target: T2, human TIGIT (form in the assay not …); assay: SPR; antibody captured on anti-human Fc surface, TIGIT analyte not named; mean of Tests 1 and 2
Text: as §2

[8] = target: T4, humanized TIGIT of humanized TIGIT knock-in mice, on CD3+ splenocytes; assay: TIGIT receptor occupancy assay on CD3+ splenocytes from humanized TIGIT knock-in mice
T4 chain: T1 sequence

[9] = target: T3, full-length human TIGIT on cells; assay: TIGIT receptor occupancy assay on CD3+ human peripheral blood mononuclear cells; CD3+ human peripheral blood mononuclear cells
[10] = target: T5, TIGIT-his (human, UniProt Q495A1 22-141); assay: SPR; antibody immobilized on CM5 chip, TIGIT-his as analyte, HBS pH 6.0
T5 construct: also called human TIGIT; not shown: his tag
T5 sequence: T1 sequence

[11] = target: T5, TIGIT-his; assay: SPR; antibody immobilized on CM5 chip, TIGIT-his as analyte, HBS pH 7.4
[12] = target: T6, TIGIT-mIgG2a (human; mouse, UniProt Q495A1 22-141); assay: flow cytometry; blockade of soluble TIGIT binding to PVR on HEK293/PVR cells
T6 construct: also called soluble TIGIT; TIGIT-mIgG2a fusion protein
T6 sequence: T1 sequence
Text: (§4) To determine whether anti-TIGIT antibodies could block TIGIT-PVR and TIGIT-PVR-L2 interactions, HEK293 cells were engineered to express high levels of PVR or PVR-L2. The resultant cell lines were named HEK293/PVR and HEK293/PVR-L2, respectively. […] The blockade of TIGIT-ligand interaction was quantitatively measured by adding serially diluted anti-TIGIT antibodies.

[13] = target: T6, TIGIT-mIgG2a; assay: flow cytometry; blockade of soluble TIGIT binding to PVR-L2 on HEK293/PVR-L2 cells
Text: as §4

[14] = target: T5, TIGIT-his; assay: SPR; antibody immobilized on CM5 chip, TIGIT-his as analyte, HBS pH 6.0; column head prints nM, koff/kon gives M
[15] = target: T5, TIGIT-his; assay: SPR; antibody immobilized on CM5 chip, TIGIT-his as analyte, HBS pH 7.4; column head prints nM, koff/kon gives M
[16] = target: T2, human TIGIT (form in the assay not …); assay: SPR; antibody captured on anti-human Fc surface, TIGIT analyte not named; Test 1; Test 1
Text: as §2

B1: mu1217 (antibody, V domains shown)
VH: EVKLVESGGGLVQPGGSLKLSCATSGFTFSDYYMYWIRQTPEKRLEWVAYITKGGGSTYYPDTVKGRFTISRDNAKNTLYLQVSRLKSEDTAIYYCARQTNYDFTMDYWGQGTSVTVSS
VL: DIVMTQSHKFMSTSVGDRVSIICKASQDVGTSVAWYQQKPGQSPNLLIYWASARHTGVPDRFTGSGSGTDFTLTISNVQSEDLADYFCQQYSSYPLTFGAGTKLELK
notes: Purified murine hybridoma antibody; also called murine anti-TIGIT mAb mu1217
- koff [1]: 3.96e-05 s⁻¹
- kon [1]: 4.33e+06 M⁻¹ s⁻¹
- Kd [2]: 0.00915 nM

B3: hu1217-1-1 (antibody, V domains shown)
VH: EVQLVESGGGLVQPGGSLRLSCATSGFTFSDYYMYWIRQAPGKGLEWVAYITKGGGSTYYPDSVKGRFTISRDNAKNTLYLQMNSLRAEDTAVYYCARQTNYDFTMDYWGQGTLVTVSS
VL: EIVMTQSPATLSVSPGERATLSCKASQDVGTSVAWYQQKPGQAPRLLIYWASARHTGVPARFSGSGSGTEFTLTISSLQSEDFAVYYCQQYSSYPLTFGGGTKVEIK
notes: Full-length human IgG1mf/kappa format; not shown: human kappa light chain constant region
- Kd [3]: 0.309 nM
- koff [3]: 0.000448 s⁻¹
- kon [3]: 1.45e+06 M⁻¹ s⁻¹
- Kd [5]: 0.52 nM
- koff [5]: 0.000694 s⁻¹
- kon [5]: 1.33e+06 M⁻¹ s⁻¹
- EC50 [4]: 0.114 µg/mL
- EC50 [6]: 0.084 µg/mL
- Kd [7]: 0.415 nM

B4: hu1217-2-2 (as named in Examples 12 to 14, Fc format not stated) (antibody, V domains shown)
VH: B3 VH with T24A, I37V
VL: B3 VL with V58I
notes: kept apart from m7 and m8 for that reason; also called Antibody hu1217-2-2
- EC50 [8]: 0.0488 µg/mL
- EC50 [9]: 0.0632 µg/mL

B6: hu1217-2-2/IgG1mf (antibody, V domains shown)
VH: B3 VH with T24A, I37V
VL: B3 VL with V58I
notes: not shown: human kappa light chain constant region
- IC50 [12]: 0.55 µg/mL
- IC50 [13]: 0.18 µg/mL
- Kd [3]: 0.127 nM
- koff [3]: 0.000229 s⁻¹
- Kd [5]: 0.404 nM
- koff [5]: 0.000608 s⁻¹
- kon [5]: 1.5e+06 M⁻¹ s⁻¹
- EC50 [6]: 0.068 µg/mL
- kon [16]: 1.8e+06 M⁻¹ s⁻¹
- Kd [7]: 0.266 nM

Other lines, results leading:

- Kd [3]: 0.283 nM
- koff [3]: 0.000443 s⁻¹
- kon [3]: 1.56e+06 M⁻¹ s⁻¹
- EC50 [4]: 0.1 µg/mL
B2: ch1217 (antibody, V domains shown)
VH: B1 VH
VL: B1 VL
notes: Chimeric: mu1217 variable domains fused to human IgG1mf/kappa constant regions; not shown: human kappa light chain constant region

- koff [10]: 7.6e-05 s⁻¹
- kon [10]: 2.54e+06 M⁻¹ s⁻¹
- koff [11]: 9.53e-05 s⁻¹
- kon [11]: 434000 M⁻¹ s⁻¹
- IC50 [12]: 0.64 µg/mL
- IC50 [13]: 0.25 µg/mL
- Kd [14]: 0.0299 nM
- Kd [15]: 0.219 nM
B5: hu1217-2-2/IgG1wt (antibody, V domains shown)
VH: B3 VH with T24A, I37V
VL: B3 VL with V58I
notes: Humanized version with a wild-type IgG1 Fc region and the same VH and VL as hu1217-2-2/IgG1mf
